From paper PMC3855764, “Oct4/Sox2 Binding Sites Contribute to Maintaining Hypomethylation of the Maternal Igf2/H19 Imprinting Control Region” come the findings set out here.

Data set [1] deals with T1, Oct4 (recombinant);Sox2 (recombinant) (mouse?;mouse?, UniProt P20263;P48432 1-352;1-319, |). Kind of data set: EMSA; cooperative ternary complex; printed as at least 50 fold; 10 mM Tris pH 8.0, 2 mM MgCl (so in the source), 100 mM KCl, 1.25 mM DTT, 5% glycerol, 0.0625% BSA, 19 ug/ml dGdC, 25 fmol probe in 16 ul, 10 min room temperature; 4% PAGE 0.25X TBE. The following applies: protein: recombinant;recombinant; tags: ;; copies: 1;1.
T1 sequence (P20263 whole entry, chain 1 of 2): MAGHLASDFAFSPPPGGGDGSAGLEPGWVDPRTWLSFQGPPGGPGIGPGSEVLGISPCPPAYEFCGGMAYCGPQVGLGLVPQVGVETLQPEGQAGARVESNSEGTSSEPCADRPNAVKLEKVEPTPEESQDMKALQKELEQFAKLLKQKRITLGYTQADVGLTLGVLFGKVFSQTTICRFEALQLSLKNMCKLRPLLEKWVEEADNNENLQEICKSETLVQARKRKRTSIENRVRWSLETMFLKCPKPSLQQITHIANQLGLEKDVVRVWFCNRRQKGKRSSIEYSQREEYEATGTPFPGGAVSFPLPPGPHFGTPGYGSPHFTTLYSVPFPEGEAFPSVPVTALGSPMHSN
T1 sequence (P48432 whole entry, chain 2 of 2): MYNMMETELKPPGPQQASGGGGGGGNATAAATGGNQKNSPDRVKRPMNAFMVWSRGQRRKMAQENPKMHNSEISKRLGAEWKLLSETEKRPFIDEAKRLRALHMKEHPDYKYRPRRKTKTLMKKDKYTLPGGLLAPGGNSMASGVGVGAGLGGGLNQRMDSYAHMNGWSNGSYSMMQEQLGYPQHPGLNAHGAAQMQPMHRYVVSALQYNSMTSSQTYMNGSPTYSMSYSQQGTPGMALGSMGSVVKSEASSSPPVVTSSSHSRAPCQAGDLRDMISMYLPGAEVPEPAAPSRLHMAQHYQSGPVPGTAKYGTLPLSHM

The target in data set [2] is T1, Oct4 (recombinant);Sox2 (recombinant). The data set can be described thus: EMSA; all CpGs methylated; complex not inhibited; 10 mM Tris pH 8.0, 2 mM MgCl (so in the source), 100 mM KCl, 1.25 mM DTT, 5% glycerol, 0.0625% BSA, 19 ug/ml dGdC, 25 fmol probe in 16 ul, 10 min room temperature; 4% PAGE 0.25X TBE. The following applies: protein: recombinant;recombinant; tags: ;; copies: 1;1. A general note: Mobility shift assays separate free from complexed probe on a gel.

Data set [3] shares this target. The data set can be described thus: EMSA; several complexes, minor one likely full occupancy; 10 mM Tris pH 8.0, 2 mM MgCl (so in the source), 100 mM KCl, 1.25 mM DTT, 5% glycerol, 0.0625% BSA, 19 ug/ml dGdC, 25 fmol probe in 16 ul, 10 min room temperature; 4% PAGE 0.25X TBE. Conditions: protein: recombinant;recombinant; tags: ;; copies: 1;1.
Data set [4] shares this target. Kind of data set: EMSA; Oct4-Sox2-Oct4 complex (two Oct4, one Sox2); 10 mM Tris pH 8.0, 2 mM MgCl (so in the source), 100 mM KCl, 1.25 mM DTT, 5% glycerol, 0.0625% BSA, 19 ug/ml dGdC, 25 fmol probe in 16 ul, 10 min room temperature; 4% PAGE 0.25X TBE. Conditions: protein: recombinant;recombinant; tags: ;; chain copies: 2;1.
For data set [5] the target is unchanged. Kind of data set: EMSA; cooperative ternary complex; versus independent binding; 10 mM Tris pH 8.0, 2 mM MgCl (so in the source), 100 mM KCl, 1.25 mM DTT, 5% glycerol, 0.0625% BSA, 19 ug/ml dGdC, 25 fmol probe in 16 ul, 10 min room temperature; 4% PAGE 0.25X TBE. Conditions: protein: recombinant;recombinant; tags: ;; copies: 1;1.

B1: ICR Sox-OctB (dsDNA)
DNA 1: TTGGGGCGTTCAGATGCTAATGATCTCCGGCT
DNA 2: AGCCGGAGATCATTAGCATCTGAACGCCCCAA
As to B1, the binding signal in data set [1] was > 50 fold ternary complex over that expected from independent binding.

B2: B* (methylated Sox-OctB) (dsDNA)
DNA 1: B1 DNA 1
DNA 2: B1 DNA 2
modifications: CpG methylated at all CpGs
With B2, in data set [2], the binding result is reported as “binds”.

B3: mouse ICR Sox-OctA+B (both motifs) (dsDNA)
DNA 1: TTTCGTATTCTAATTGGGGCGTTCAGATGCTAATGATCTC
DNA 2: GAGATCATTAGCATCTGAACGCCCCAATTAGAATACGAAA
B3: the binding result in data set [3] was “binds”.

B4: human ICR A2 OctA/Sox-OctB, upstream Sox site mutant (dsDNA)
DNA 1: CGCGGAGATGCTAATTTAGGAGCTTGAGATGCTAAAGAGCTG
DNA 2: CAGCTCTTTAGCATCTCAAGCTCCTAAATTAGCATCTCCGCG
B4: the binding result in data set [4] is reported as “binds”.

B5: ICR Sox-OctA (dsDNA)
DNA 1: CTGGTGATTTGCGCTTTCGTATTCTAATTGGGGAC
DNA 2: GTCCCCAATTAGAATACGAAAGCGCAAATCACCAG
On to B5, for which, in data set [5], the binding result is given as “binds”.

B6: A* (methylated Sox-OctA) (dsDNA)
DNA 1: B5 DNA 1
DNA 2: B5 DNA 2
modifications: CpG methylated at all CpGs
As for B6, the binding result in data set [2] was “binds”.
